Experiment [1] concerns the target T1, human DLL4, full length, on cells (human, UniProt Q9NR61 27-685). Description: cell-based or functional assay.
The target of experiment [2] is T2, mouse DLL4 on cells (mouse, UniProt Q9JI71 27-686).
T2 construct: whole, on cells; also called mouse DLL4-293G; mu DLL4 cells
Description: competition FACS: huNotch-1 to DLL4 cells. The method, then:
(§1) Notch blocking assay: Briefly, stable cell lines overexpressing cell-surface DLL4 were harvested from tissue culture flasks and re-suspended in phosphate buffered saline (PBS) containing 1% bovine serum albumin and 1 mM CaCl₂ (FACS buffer). HEK293G-DLL4 cells were dispensed into 96-well plate (v-bottom) at 1.5×10⁵ cells/well in FACS buffer. After spinning down cells and discarding the supernatant, 50 μL of purified IgG with appropriate dilution were added to each well, and incubated on ice at 4° C. for 60 minutes, followed by addition of 50 μL/well of Notch1-biotin at 0.2 μg/mL for human DLL4-293G or 2.0 μg/mL for mouse DLL4-293G (1.0 or 0.1 μg/mL final) for an additional 1 hour incubation ice at 4° C. After washing the cells two times with FACS buffer, 50 μL of R-phycoerythrin-conjugated streptavidin (1:150 dilution in FACS buffer) (Jackson ImmunoResearch, West Grove, Pa., Cat.#016-110-084) were added. Following an incubation on ice (4° C., 60 minutes), cells were washed three times and resuspended in FACS buffer. Fluorescence was measured using a Becton Dickinson FACSCalibur-HTS (Becton Dickinson, San Jose, Calif.). Data were analyzed using Graphpad Prism software, and IC₅₀ values were reported as the concentration of antibody to achieve 50% reduction of Notch1 bound to DLL4 expressing cells.

The target in experiment [3] is T1, human DLL4, full length, on cells. Put plainly: competition FACS: huNotch-1 to DLL4 cells. How it is done:
as §1

The target in experiment [4] is T3, mouse DLL4 extracellular domain (mouse, UniProt Q9JI71 27-532).
T3 construct: extracellular domain; also called muDLL4 ECD; murine DLL4
T3 sequence (Q9JI71 27-532): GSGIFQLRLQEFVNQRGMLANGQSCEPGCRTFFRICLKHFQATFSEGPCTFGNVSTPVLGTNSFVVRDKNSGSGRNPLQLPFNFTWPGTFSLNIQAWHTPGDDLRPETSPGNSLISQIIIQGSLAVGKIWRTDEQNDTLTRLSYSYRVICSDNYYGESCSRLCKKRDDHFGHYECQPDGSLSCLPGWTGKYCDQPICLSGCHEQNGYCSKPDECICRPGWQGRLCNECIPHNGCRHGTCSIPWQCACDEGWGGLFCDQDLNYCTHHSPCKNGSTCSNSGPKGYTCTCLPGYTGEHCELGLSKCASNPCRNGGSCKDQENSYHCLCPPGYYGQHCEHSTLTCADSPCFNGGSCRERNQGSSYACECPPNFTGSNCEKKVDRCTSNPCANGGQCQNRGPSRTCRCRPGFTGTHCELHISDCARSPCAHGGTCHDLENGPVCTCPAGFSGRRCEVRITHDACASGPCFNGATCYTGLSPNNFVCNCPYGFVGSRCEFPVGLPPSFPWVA
Description: binding ELISA.

In experiment [5] the target is T4, cynomolgus monkey DLL4 extracellular domain (cynomolgus monkey).
T4 construct: extracellular domain; also called cynoDLL4 ECD; Cyno DLL4
Description: binding ELISA. (ELISA stands for enzyme-linked immunosorbent assay.)

Experiment [6] concerns the target T5, human DLL4 extracellular domain (human, UniProt Q9NR61 27-529).
T5 construct: purified recombinant ECD; biotin-labelled or 6xHis-tagged depending on the assay; also called huDLL4 ECD; hu DLL4 ECD
Put plainly: binding ELISA.

For experiment [7], the target named is T3, mouse DLL4 extracellular domain. Description: competition ELISA vs Notch-1.
The target of experiment [8] is T5, human DLL4 extracellular domain. Put plainly: competition ELISA vs Notch-1.
Experiment [9] addresses T3, mouse DLL4 extracellular domain. Description: SPR (Biacore). Background: Surface plasmon resonance follows binding to a sensor surface in real time, without labels.
Experiment [10] has as its target T5, human DLL4 extracellular domain. Description: SPR (Biacore).
Experiment [11] has as its target T2, mouse DLL4 on cells. Put plainly: FACS, DLL4 cells.
For experiment [12], the target named is T1, human DLL4, full length, on cells. Put plainly: FACS, DLL4 cells. On the technique in general: Flow cytometry measures light scatter and fluorescence of single cells or particles in a stream.
Experiment [13] has as its target T2, mouse DLL4 on cells. Description: FACS, DLL4 cells. This is another data set of the same source.
The target of experiment [14] is T1, human DLL4, full length, on cells. Put plainly: FACS, DLL4 cells. This is another data set of the same source.

One molecule from patent US20110217237A1 (AbbVie / Abbott, published 2011) can be followed below.

Like-named read-outs stand apart in the source and are kept apart here.

T5 sequence (Q9NR61 27-529 limits assumed): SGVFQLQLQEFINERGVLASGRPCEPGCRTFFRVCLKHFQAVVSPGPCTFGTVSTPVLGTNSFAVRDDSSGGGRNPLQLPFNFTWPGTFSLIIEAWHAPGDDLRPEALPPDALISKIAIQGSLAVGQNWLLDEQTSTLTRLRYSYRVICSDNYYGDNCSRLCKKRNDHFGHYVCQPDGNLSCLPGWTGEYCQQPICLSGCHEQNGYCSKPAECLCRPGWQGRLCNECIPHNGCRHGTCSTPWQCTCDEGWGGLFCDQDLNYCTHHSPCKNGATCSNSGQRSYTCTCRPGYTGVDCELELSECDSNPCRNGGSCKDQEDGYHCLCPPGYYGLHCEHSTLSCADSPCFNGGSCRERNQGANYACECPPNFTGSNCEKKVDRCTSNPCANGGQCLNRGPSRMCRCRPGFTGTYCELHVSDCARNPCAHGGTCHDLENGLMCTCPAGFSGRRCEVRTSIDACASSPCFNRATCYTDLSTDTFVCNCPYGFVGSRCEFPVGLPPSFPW
T2 sequence (Q9JI71 27-686): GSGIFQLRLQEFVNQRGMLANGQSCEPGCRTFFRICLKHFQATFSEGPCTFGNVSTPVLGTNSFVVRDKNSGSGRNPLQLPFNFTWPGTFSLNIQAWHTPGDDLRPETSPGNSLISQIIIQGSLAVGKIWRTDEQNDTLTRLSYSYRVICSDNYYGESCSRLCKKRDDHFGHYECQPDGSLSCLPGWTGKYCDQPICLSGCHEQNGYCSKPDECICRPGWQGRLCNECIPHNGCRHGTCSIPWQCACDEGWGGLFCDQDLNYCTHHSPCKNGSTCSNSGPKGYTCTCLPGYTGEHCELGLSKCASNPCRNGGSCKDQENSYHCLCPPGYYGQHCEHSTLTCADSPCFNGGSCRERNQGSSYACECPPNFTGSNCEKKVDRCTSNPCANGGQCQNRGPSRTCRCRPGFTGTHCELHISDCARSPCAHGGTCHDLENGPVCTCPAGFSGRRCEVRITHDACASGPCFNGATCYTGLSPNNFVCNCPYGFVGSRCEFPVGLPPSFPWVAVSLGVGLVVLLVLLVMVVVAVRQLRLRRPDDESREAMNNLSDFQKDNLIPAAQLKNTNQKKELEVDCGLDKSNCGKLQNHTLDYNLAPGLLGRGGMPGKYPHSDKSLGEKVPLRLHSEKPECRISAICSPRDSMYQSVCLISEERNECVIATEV
T1 sequence (Q9NR61 27-685 limits assumed): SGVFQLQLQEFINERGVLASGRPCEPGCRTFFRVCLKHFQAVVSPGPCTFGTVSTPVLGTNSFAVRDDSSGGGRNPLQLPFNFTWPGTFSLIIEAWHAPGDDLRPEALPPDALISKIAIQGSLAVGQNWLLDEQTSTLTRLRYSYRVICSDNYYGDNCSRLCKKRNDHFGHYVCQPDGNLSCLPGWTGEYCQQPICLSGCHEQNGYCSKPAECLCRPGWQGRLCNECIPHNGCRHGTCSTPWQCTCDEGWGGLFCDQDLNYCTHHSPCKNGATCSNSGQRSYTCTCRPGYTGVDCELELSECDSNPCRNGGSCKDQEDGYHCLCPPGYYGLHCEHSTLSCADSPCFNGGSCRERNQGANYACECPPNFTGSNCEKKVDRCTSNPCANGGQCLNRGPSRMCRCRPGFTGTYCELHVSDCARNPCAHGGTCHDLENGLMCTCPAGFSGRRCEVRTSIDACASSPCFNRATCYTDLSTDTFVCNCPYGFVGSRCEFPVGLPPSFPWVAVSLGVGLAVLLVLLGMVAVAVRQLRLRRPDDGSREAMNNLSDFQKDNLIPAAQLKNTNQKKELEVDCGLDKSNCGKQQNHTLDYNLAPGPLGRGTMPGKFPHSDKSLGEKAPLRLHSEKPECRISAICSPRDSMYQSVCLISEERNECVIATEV

B1: 1A11 chimeric antibody (antibody, human IgG1, V domains shown)
VH: EVQLVESGGGLVQPGRSMKLSCAASGFTFRNFPMAWVRQAPTRGLEWVATISSSDGTTYYRDSVKGRFTISRDNAKSTLYLQVNSLRSEDTATYYCSRGYYNSPFAYWGQGTLVTVSS
VL: DIQMTQSPASLSASLGETVTIECRASEDIYSNLAWYQQKPGNSPQLLIFDTNNLADGVPSRFSGSGSGTQSSLKINSLQSEDVASYFCQQYNNYPPTFGGGTKLELKR
notes: also called Chimera of 1A11; 1A11 (chimera)
For B1, the “Reporter Assay (EC50, nM)” value in experiment [1] was 5.98 nM. In addition, the IC50 (usually the midpoint of a concentration-inhibition curve) with mouse DLL4 on cells [2] is 0.682 nM; in experiment [3], 2.34 nM; in [7], 3.5 nM; in experiment [8] it was 1.8 nM. Further, the EC50 (commonly the concentration needed to bring the measured effect to its halfway point) was 0.3 nM in experiment [4]; 0.33 nM in experiment [5]; 0.2 nM in experiment [6]; 0.53 nM in the experiment with mouse DLL4 on cells [11]; 6.29 nM in experiment [12]; 0.74 nM with mouse DLL4 on cells [13]. The molecule also showed an EC50 in experiment [14] of 19.6 nM. Further, the Kd (commonly the concentration at which binding is half-saturated) in experiment [9] amounted to 24 nM; in [10], 9 nM.
